Data from paper doi:10.1101/2021.04.06.21255004, “Hemoglobin Interacts with Endothelial Nitric Oxide Synthase to Regulate Vasodilation in Human Resistance Arteries” (medRxiv, 2021).

Target: T1, purified human alpha globin (human, UniProt P69905 1-142, biotinylated using EZ-Link NHS-PEG4 Biotinylation Kit)
T1 construct: hemoglobin subunit alpha, human; called full-length alpha globin in the discussion; Immobilised through biotin on streptavidin biosensors; also called full-length alpha globin; source: purified
T1 sequence (P69905 whole entry): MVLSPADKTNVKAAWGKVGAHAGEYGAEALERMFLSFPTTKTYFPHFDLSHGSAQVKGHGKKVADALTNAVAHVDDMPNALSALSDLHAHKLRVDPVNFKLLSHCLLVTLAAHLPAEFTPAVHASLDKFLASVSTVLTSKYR
Assay: BLI; Octet RED96; biotinylated alpha globin immobilised on streptavidin biosensors; analyte in solution, 120 s association, 120 s dissociation in assay buffer
Settings: both partners purified

B1: alpha hemoglobin stabilizing protein (natural protein, UniProt Q9NZD4 1-102, looked up)
chain: MALLKANKDLISAGLKEFSVLLNQQVFNDPLVSEEDMVTVVEDWMNFYINYYRQQVTGEPQERDKALQELRQELNTLANPFLAKYRDFLKSHELPSHPPPSS
notes: alpha hemoglobin stabilizing protein; also called AHSP
Kd: 109 nM
